B1: 2B4-z14-uIgG1K (antibody, V domains shown)
VH: EVQLQQSGPELVKPGASVKMSCKASGYTFTDYNMHWVRQSHGKGLEWIGYINPNNGGSSYNRKFKGKATLTVNKSSRSASMELRSLTSEDSAVYYCATRFDVWGTGTTVTVSS
VL: DVVMTQSPLSLPVTLGQPASISCKSSQSLLFSDGKTYLNWLQQRPGQSPRRLIYLVSKLDSGVPDRFSGSGSGTDFTLKISRVEAEDVGVYYCWQGTHFPQTFGGGTKVEIK
B2: 2B4-z2-uIgG1K (antibody, V domains shown)
VH: QVQLVQSGAEVKKPGASVKVSCKASGYTFTDYNMHWVRQAPGQGLEWMGYINPNNGGSSYNRKFKGRVTMTTDTSTSTAYMELRSLRSDDTAVYYCATRFDVWGQGTTVTVSS
VL: DVVMTQSPLSLPVTLGQPASISCKSSQSLLFSDGKTYLNWLQQRPGQSPRRLIYLVSKLDSGVPDRFSGSGSGTDFTLKISRVEAEDVGVYYCWQGTHFPQTFGGGTKVEIK
B3: 11B6-p1-uIgG1K (antibody, V domains shown)
VH: EVQLVESGGGLVKPGGSLKLSCAASGFTFSDFGIHWVRQAPEKGLEWVGYISSGSRTIHYADTVKGRFTISRDNAKNTLFLQMTNLRSEDTAIYYCARRDWDPEWLAYWGQGTLVTISA
VL: DVVMTQAPLSLPVSLGDQASISCRSSLSLVHSQGHTYLHWYLQKPGQSPKLLIYKVSNRFSGVPDRFSGSGSGTDFTLKIRRVEAEDLGVYFCSQSTHVPFTFGSGTKLEIK
B4: 11B6-z12-uIgG1K (antibody, V domains shown)
VH: EVQLVESGGGLVKPGGSLRLSCAASGFTFSDFGIHWVRQAPGKGLEWVGYISSGSRTIHYADTVKGRFTISRDNAKNSLYLQMNSLRAEDTAIYYCARRDWDPEWLAYWGQGTLVTVSS
VL: DVVMTQSPLSLPVTPGEPASISCRSSLSLVHSNGHTYLHWYLQKPGQSPKLLIYKVSNRFSGVPDRFSGSGSGTDFTLKIRRVEAEDVGVYFCSQSTHVPFTFGQGTKLEIK
B5: 11B6-z13-uIgG1K (antibody, V domains shown)
VH: EVQLVESGGGLVKPGGSLRLSCAASGFTFSDFGIHWVRQAPGKGLEWVGYISSGSRTIHYADTVKGRFTISRDNAKNTLFLQMNSLRAEDTAIYYCARRDWDPEWLAYWGQGTLVTVSS
VL: DVVMTQSPLSLPVTPGEPASISCRSSLSLVHSNGHTYLHWYLQKPGQSPKLLIYKVSNRFSGVPDRFSGSGSGTDFTLKIRRVEAEDVGVYFCSQSTHVPFTFGQGTKLEIK
B6: 11B6-z4-uIgG1K (antibody, V domains shown)
VH: EVQLVESGGGLVKPGGSLRLSCAASGFTFSDFGIHWVRQAPGKGLEWVSYISSGSRTIHYADTVKGRFTISRDNAKNSLYLQMNSLRAEDTAIYYCARRDWDPEWLAYWGQGTLVTVSS
VL: DIVMTQSPLSLPVTPGEPASISCRSSLSLVHSNGHTYLHWYLQKPGQSPQLLIYKVSNRFSGVPDRFSGSGSGTDFTLKISRVEAEDVGVYYCSQSTHVPFTFGQGTKLEIK
B7: 11B6-z2-uIgG1K (antibody, V domains shown)
VH: EVQLVESGGGLVKPGGSLRLSCAASGFTFSDFGIHWVRQAPGKGLEWVSYISSGSRTIHYADTVKGRFTISRDNAKNTLYLQMNSLRAEDTAVYYCARRDWDPEWLAYWGQGTLVTVSS
VL: DIVMTQSPLSLPVTPGEPASISCRSSLSLVHSNGHTYLHWYLQKPGQSPQLLIYKVSNRFSGVPDRFSGSGSGTDFTLKISRVEAEDVGVYYCSQSTHVPFTFGQGTKLEIK
B8: 11B6-z11-uIgG1K (antibody, V domains shown)
VH: EVQLVESGGGLVKPGGSLRLSCAASGFTFSDFGIHWVRQAPGKGLEWVGYISSGSRTIHYADTVKGRFTISRDNAKNSLYLQMNSLRAEDTAIYYCARRDWDPEWLAYWGQGTLVTVSS
VL: DVVMTQSPLSLPVTPGEPASISCRSSLSLVHSNGHTYLHWYLQKPGQSPQLLIYKVSNRFSGVPDRFSGSGSGTDFTLKISRVEAEDVGVYFCSQSTHVPFTFGQGTKLEIK
B9: 11B6-z3-uIgG1K (antibody, V domains shown)
VH: EVQLVESGGGLVKPGGSLRLSCAASGFTFSDFGIHWVRQAPGKGLEWVSYISSGSRTIHYADTVKGRFTISRDNAKNSLFLQMNSLRAEDTAVYYCARRDWDPEWLAYWGQGTLVTVSS
VL: DIVMTQSPLSLPVTPGEPASISCRSSLSLVHSNGHTYLHWYLQKPGQSPQLLIYKVSNRFSGVPDRFSGSGSGTDFTLKISRVEAEDVGVYYCSQSTHVPFTFGQGTKLEIK
B10: 11B6-z1-uIgG1K (antibody, V domains shown)
VH: EVQLVESGGGLVKPGGSLRLSCAASGFTFSDFGIHWVRQAPGKGLEWVGYISSGSRTIHYADTVKGRFTISRDNAKNSLYLQMNSLRAEDTAVYYCARRDWDPEWLAYWGQGTLVTVSS
VL: DIVMTQSPLSLPVTPGEPASISCRSSLSLVHSNGHTYLHWYLQKPGQSPQLLIYKVSNRFSGVPDRFSGSGSGTDFTLKISRVEAEDVGVYYCSQSTHVPFTFGQGTKLEIK
B11: 11B6-z10-uIgG1K (antibody, V domains shown)
VH: EVQLVESGGGLVKPGGSLRLSCAASGFTFSDFGIHWVRQAPGKGLEWVGYISSGSRTIHYADTVKGRFTISRDNAKNSLYLQMNSLRAEDTAVYYCARRDWDPEWLAYWGQGTLVTVSS
VL: DVVMTQSPLSLPVTPGEPASISCRSSLSLVHSNGHTYLHWYLQKPGQSPQLLIYKVSNRFSGVPDRFSGSGSGTDFTLKISRVEAEDVGVYFCSQSTHVPFTFGQGTKLEIK
B12: 11B6-z9-uIgG1K (antibody, V domains shown)
VH: EVQLVESGGGLVKPGGSLRLSCAASGFTFSDFGIHWVRQAPGKGLEWVSYISSGSRTIHYADTVKGRFTISRDNAKNSLYLQMNSLRAEDTAVYYCARRDWDPEWLAYWGQGTLVTVSS
VL: DVVMTQSPLSLPVTPGEPASISCRSSLSLVHSNGHTYLHWYLQKPGQSPQLLIYKVSNRFSGVPDRFSGSGSGTDFTLKISRVEAEDVGVYFCSQSTHVPFTFGQGTKLEIK
B13: 11B6-p3-uIgG1K (antibody, V domains shown)
VH: EVQLVESGGGLVKPGGSLKLSCAASGFTFSDFGIHWVRQAPEKGLEWVGYISSGSRTIHYADTVKGRFTISRDNAKNTLFLQMTNLRSEDTAIYYCARRDWDPEWLAYWGQGTLVTISA
VL: DVVMTQAPLSLPVSLGDQASISCRSSLSLVHSNAHTYLHWYLQKPGQSPKLLIYKVSNRFSGVPDRFSGSGSGTDFTLKIRRVEAEDLGVYFCSQSTHVPFTFGSGTKLEIK
B14: 11B6-z14-uIgG1K (antibody, V domains shown)
VH: EVQLVESGGGLVKPGGSLKLSCAASGFTFSDFGIHWVRQAPEKGLEWVGYISSGSRTIHYADTVKGRFTISRDNAKNTLFLQMTNLRSEDTAIYYCARRDWDPEWLAYWGQGTLVTISA
VL: DVVMTQSPLSLPVTPGEPASISCRSSLSLVHSNGHTYLHWYLQKPGQSPKLLIYKVSNRFSGVPDRFSGSGSGTDFTLKIRRVEAEDVGVYFCSQSTHVPFTFGQGTKLEIK
B15: 11B6-z15-uIgG1K (antibody, V domains shown)
VH: EVQLVESGGGLVKPGGSLRLSCAASGFTFSDFGIHWVRQAPGKGLEWVGYISSGSRTIHYADTVKGRFTISRDNAKNTLFLQMNSLRAEDTAIYYCARRDWDPEWLAYWGQGTLVTVSS
VL: DVVMTQAPLSLPVSLGDQASISCRSSLSLVHSNGHTYLHWYLQKPGQSPKLLIYKVSNRFSGVPDRFSGSGSGTDFTLKIRRVEAEDLGVYFCSQSTHVPFTFGSGTKLEIK
B16: 11B6-p2-uIgG1K (antibody, V domains shown)
VH: EVQLVESGGGLVKPGGSLKLSCAASGFTFSDFGIHWVRQAPEKGLEWVGYISSGSRTIHYADTVKGRFTISRDNAKNTLFLQMTNLRSEDTAIYYCARRDWDPEWLAYWGQGTLVTISA
VL: DVVMTQAPLSLPVSLGDQASISCRSSLSLVHSSGHTYLHWYLQKPGQSPKLLIYKVSNRFSGVPDRFSGSGSGTDFTLKIRRVEAEDLGVYFCSQSTHVPFTFGSGTKLEIK
B17: 11B6-z0-uIgG1K (antibody, V domains shown)
VH: EVQLVESGGGLVKPGGSLRLSCAASGFTFSDFGIHWVRQAPGKGLEWVSYISSGSRTIHYADTVKGRFTISRDNAKNSLYLQMNSLRAEDTAVYYCARRDWDPEWLAYWGQGTLVTVSS
VL: DIVMTQSPLSLPVTPGEPASISCRSSLSLVHSNGHTYLHWYLQKPGQSPQLLIYKVSNRFSGVPDRFSGSGSGTDFTLKISRVEAEDVGVYYCSQSTHVPFTFGQGTKLEIK
B18: 11B6-z8-uIgG1K (antibody, V domains shown)
VH: EVQLVESGGGLVKPGGSLRLSCAASGFTFSDFGIHWVRQAPGKGLEWVSYISSGSRTIHYADTVKGRFTISRDNAKNSLYLQMNSLRAEDTAVYYCARRDWDPEWLAYWGQGTLVTVSS
VL: DIVMTQSPLSLPVTPGEPASISCRSSLSLVHSNGHTYLHWYLQKPGQSPQLLIYKVSNRFSGVPDRFSGSGSGTDFTLKISRVEAEDVGVYFCSQSTHVPFTFGQGTKLEIK
B19: 11B6-z6-uIgG1K (antibody, V domains shown)
VH: EVQLVESGGGLVKPGGSLRLSCAASGFTFSDFGIHWVRQAPGKGLEWVSYISSGSRTIHYADTVKGRFTISRDNAKNSLYLQMNSLRAEDTAVYYCARRDWDPEWLAYWGQGTLVTVSS
VL: DIVMTQSPLSLPVTPGEPASISCRSSLSLVHSNGHTYLHWYLQKPGQSPKLLIYKVSNRFSGVPDRFSGSGSGTDFTLKISRVEAEDVGVYYCSQSTHVPFTFGQGTKLEIK
B20: 11B6-z5-uIgG1K (antibody, V domains shown)
VH: EVQLVESGGGLVKPGGSLRLSCAASGFTFSDFGIHWVRQAPGKGLEWVSYISSGSRTIHYADTVKGRFTISRDNAKNSLYLQMNSLRAEDTAVYYCARRDWDPEWLAYWGQGTLVTVSS
VL: DVVMTQSPLSLPVTPGEPASISCRSSLSLVHSNGHTYLHWYLQKPGQSPQLLIYKVSNRFSGVPDRFSGSGSGTDFTLKISRVEAEDVGVYYCSQSTHVPFTFGQGTKLEIK
B21: 11B6-z7-uIgG1K (antibody, V domains shown)
VH: EVQLVESGGGLVKPGGSLRLSCAASGFTFSDFGIHWVRQAPGKGLEWVSYISSGSRTIHYADTVKGRFTISRDNAKNSLYLQMNSLRAEDTAVYYCARRDWDPEWLAYWGQGTLVTVSS
VL: DIVMTQSPLSLPVTPGEPASISCRSSLSLVHSNGHTYLHWYLQKPGQSPQLLIYKVSNRFSGVPDRFSGSGSGTDFTLKIRRVEAEDVGVYYCSQSTHVPFTFGQGTKLEIK

molecular target: T1, human MYCT1 (hMYCT1) (human, UniProt Q8N699 1-235, limits assumed); assay: SPR (Biacore 8K), antibody captured via anti-human Fc IgG, MYCT1 as analyte, steady-state affinity model
T1 construct: also called MYC Target 1
T1 sequence: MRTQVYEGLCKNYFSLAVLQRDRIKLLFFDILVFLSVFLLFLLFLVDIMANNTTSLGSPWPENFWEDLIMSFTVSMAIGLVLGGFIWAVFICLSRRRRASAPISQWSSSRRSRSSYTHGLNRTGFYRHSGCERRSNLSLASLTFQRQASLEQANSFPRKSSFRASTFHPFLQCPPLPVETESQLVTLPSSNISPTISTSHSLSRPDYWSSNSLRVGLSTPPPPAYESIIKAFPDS

Row | Binder | Kd [nM]
1 | B1 | 203
2 | B2 | 368

molecular target: T1, human MYCT1 (hMYCT1); assay: SPR koff ranking, single curve, antibody captured via anti-human Fc IgG, 10 nM MYCT1 as analyte, 1:1 binding model

Row | Binder | koff [s⁻¹]
3 | B3 | 0.00933
4 | B4 | 0.00838
5 | B5 | 0.00838
6 | B6 | 0.0476
7 | B7 | 0.056
8 | B8 | 0.0102
9 | B9 | 0.0659
10 | B10 | 0.0169
11 | B11 | 0.0102
12 | B12 | 0.0311
13 | B13 | 0.00547
14 | B14 | 0.0052
15 | B15 | 0.00906
16 | B16 | 0.00691
17 | B17 | 0.0624
18 | B18 | 0.0324
19 | B19 | 0.0377
20 | B20 | 0.0521
21 | B21 | 0.0473
